# Laboratory results reported in the supplement of paper PMC12042874.
# ± gives the uncertainty stated by the source.
# Assay: amyloid nucleation score (Sup35N fusion, yeast selection) (log enrichment); library NNK1; higher = more nucleation; inactive = no reads after selection
# Procedure, shortened: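 Nucleation score: DiMSum log enrichment of output over input reads, centred on the mode score of non-aggregating sequences. Only sequences with at least 100 input reads were kept. Reads came from Illumina sequencing of plasmid inserts before and after 7 days of growth at 30°C without adenine and uracil, in psi-negative yeast expressing Sup35N fused to peptides of 20 random codons after 24 hours of induction with 100 μM copper sulfate.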
row,Substance,amyloid nucleation score
1,VYWMFV,0.369 ± 0.3
2,GFFGFIGRVMVIGRWREVPG,-0.265 ± 0.24
3,PMLVQLLEASWVKPVLDCIY,inactive
4,NNKGSLSPGNLDTSDESEFS,0.652 ± 0.29
5,ISGFMLQVLTRRYSWMSA,-0.498 ± 0.88
6,QALYSCDDYRGYRTSQCPRS,-1.13 ± 1.9
7,LASLDLCVISLMNNHVDRTD,0.94 ± 0.29
8,IGVRRFFLWS,-0.753 ± 0.48
9,QSLSLVVPDIVMIKTPN,inactive
10,TSLYNCRVRRLYFWWLRIML,1.14 ± 0.7
11,HHIRCRVRIQNNPS,0.368 ± 0.55
12,LVLLQVVIYGHLQCSFYQMH,1.8 ± 0.23
13,RLIYRCLKSGCVFPWLSRMS,-0.571 ± 1.1
14,YNDMVICSTTDGTLSYCRHF,0.329 ± 0.26
15,TYHFIYEWISLTIT,inactive
16,ERRQSEKPGLLPSWS,0.46 ± 1.2
17,TWCIAVVSEILLLHI,inactive
18,YFDRNFARYFCYRVTTT,1.48 ± 0.2
19,HRVVSVRRCMKHPLSMERVA,0.447 ± 0.51
20,KVVKCS,-0.97 ± 0.3
21,AMGRGLNWCPIGFVVSDMQR,1.39 ± 0.67
22,SAWSGR,0.104 ± 0.3
23,RQGLSAGSRYIK,-0.311 ± 0.69
24,WLSRSSFMKLCSTKFPRWRL,-0.494 ± 1.1
25,TAILLNVFKCSIFWVALK,-0.691 ± 0.72

row,Substance,amyloid nucleation score
1,FVAGDSLTHARKYAVQRL,-1.08 ± 0.59
2,TRFLGYWADLSICMPSYGCR,-0.209 ± 1
3,NVTCSVISNGNLSEFDVFVI,0.122 ± 0.75
4,VDVQGICRHISFNIAGA,-0.035 ± 0.72
5,TRCINVYHPLCI,-0.875 ± 0.36
6,QTFMHSCEFRVN,-0.347 ± 0.66
7,NSDLWIGVCAVLSGLMTIIG,0.509 ± 0.64
8,IILLNNYTDMHIPEGIGVTM,0.466 ± 1.4
9,LRMKANYVTSAFNRCVLLLG,0.425 ± 0.41
10,INMRKLPSRVSSFKVKCGHR,-0.42 ± 1.7
11,SHPSKRLRTSKNVCACATNP,-0.12 ± 0.4
12,CWNVLNCMHAFRCGPMNQRR,0.831 ± 0.58
13,SILISMYGGSSKKCQRFEEG,0.977 ± 0.47
14,RCNDAFTFTCRPGWMWKWGK,1.75 ± 0.18
15,HKLFNALNPKKG,0.532 ± 1.2
16,DVDTRRT,inactive
17,TFVACDLKCPRCAWVGDFVM,-0.912 ± 0.5
18,FLRHLSSCCHLATLCVDWGA,-0.103 ± 1.4
19,KIGLNCFE,inactive
20,TSYGISLPAHP,0.541 ± 0.75
21,NYRRQLSFLRLSGQDMLEGK,0.184 ± 0.53
22,CMSRSYYYTSPKDPKEFNC,0.56 ± 0.33
23,DASLQWYVDSLKFCWV,0.18 ± 0.36
24,QLQTSQRV,inactive
25,SKTEMSTTMFY,-0.037 ± 0.38

row,Substance,amyloid nucleation score
1,LAREAGR,inactive
2,FLKSYLLRC,0.012 ± 0.63
3,LCLYGVC,-0.164 ± 0.56
4,SHIHCFFDDTTNTKKLVWPW,-0.563 ± 0.45
5,FVKNSKHYRPFLNGSKRM,0.475 ± 0.83
6,SLDCLLYTLVDCRAFSFYKN,-0.359 ± 0.39
7,GNWGNGSGTCLCTSSFYCRL,2.78 ± 0.14
8,FWIEGP,0.564 ± 0.9
9,QQRLWRNAWTDMARKVSTSR,0.452 ± 1.2
10,GAILENYALFESRTYFMLHC,0.383 ± 0.66
11,WNIRRIRSDTRTLFKCNL,0.636 ± 0.32
12,VEKRKTFRLGAFGEVRVICS,0.461 ± 0.99
13,RYRWTSLVFLGMTQH,0.75 ± 0.38
14,SALILVFFYWA,1.31 ± 0.3
15,VWLRIM,-0.957 ± 2.4
16,VYRLRLVFKVSYFIIECHKG,-0.851 ± 0.4
17,RSLCHAQRFGWMC,-1.7 ± 1
18,GDSYVRHRMDP,inactive
19,QLPCDRISSDALYRMWGLV,-1.41 ± 0.91
20,VRMNCMDYQFNYLSLLLRTI,-0.401 ± 0.45
21,VVSNTGSFSPVRMR,-0.117 ± 0.42
22,FGLQWSSKAACVLTCKQSLR,inactive
23,NDFLNSFLCPYYIIPDTGRI,-1.04 ± 0.44
24,ACVLTAKMAARRIHMWQGLF,-0.744 ± 0.84
25,HLCFIADGQLRTVVVELFPI,0.576 ± 0.42

row,Substance,amyloid nucleation score
1,SFLDCLRCCKCAGMR,1.5 ± 0.18
2,LNPCHWGAFLY,0.648 ± 0.67
3,YSGHWLVHLPCHHQVR,-0.028 ± 0.46
4,YWNDVAS,-0.931 ± 0.75
5,IRYLWHVLMVRFEESRWSLY,-0.061 ± 0.36
6,LCINLVYRKISPALRF,-0.859 ± 0.75
7,WGICDLKVCVQPCPSSNARI,-0.059 ± 0.57
8,SVSYTPVLHCCYCIMKWNPW,5.19 ± 0.062
9,SFDNCLFVVVAAAIVNQPVC,5.83 ± 0.09
10,VLILELDGS,-1.11 ± 2.7
11,RLNVQLAGSVGVVWFICNWA,5.98 ± 0.056
12,FWYSNIYSIFMLPVIVWEPN,6.515 ± 0.053
13,NYIVKAFSVVCFTSDTSSFR,6.08 ± 0.096
14,CLCMSC,0.108 ± 0.43
15,CYCSEWNWRCNTELDVLFQS,0.818 ± 0.4
16,YFWASHISSVYLNLETCDTM,-0.417 ± 0.42
17,FMYSKPVI,-0.314 ± 0.78
18,FGLIVQTIMFRWHQKGSNFE,-1.05 ± 2.7
19,AVGIANFTAPKCWLDNVGP,0.085 ± 0.59
20,SDRQVSSSRTYKHSTTSLGC,inactive
21,CMAGRNSFKLYMRRFNEENY,inactive
22,MAFLYFMFILFHARCLIRLP,-0.177 ± 0.65
23,FLRNNKIPVVFFSPS,inactive
24,INHVMHGMEVRRGVNGRWMY,0.312 ± 1.1
25,GGYRVLIFSIFRG,0.599 ± 0.51

row,Substance,amyloid nucleation score
1,KTCYTVFSRPYENWS,0.625 ± 0.48
2,AGLKV,-0.479 ± 0.4
3,SGQIQFIMIR,0.727 ± 0.67
4,PSMEWWGL,0.158 ± 0.88
5,LVFVVMYGSRPSLKWWGITC,0.473 ± 0.79
6,NRHRRVPFRISTALLPVKLQ,0.632 ± 0.5
7,WHALVNRGHAWSRIGQDAGC,-0.003 ± 0.79
8,HKLDQLKASRLPSLVNWRVG,1.12 ± 0.7
9,VTCRCYSFSLMAGAMTRRSG,0.188 ± 0.75
10,FVSNYYYV,1.95 ± 0.17
11,INLYVNISRFIPCV,0.027 ± 0.53
12,TYIFVIPHLVRSTDWTLFAE,0.017 ± 0.33
13,TAFVILLDHGGCDSRVIYEG,0.043 ± 0.69
14,QVNFNRRFNTQAIFNLSGVP,0.947 ± 0.71
15,ATSALGCVTHVIMSNILTMN,0.106 ± 0.34
16,LVVHTVRVQDR,-0.043 ± 0.41
17,LPFEVRLDCDVVGGG,0.725 ± 0.48
18,CYAFLDWAYVSEG,0.114 ± 0.28
19,HVFPHLWKYYCMAVALVFLR,1.38 ± 0.61
20,LFRDACLGMR,-0.494 ± 0.48
21,SLWNSYLETRV,1.14 ± 0.69
22,LGKNFLYISCSLTDQGAGLH,2.7 ± 0.16
23,SFVVGNGYMVGWWFITAHVA,0.499 ± 0.41
24,MAGPYLVERRSMWASNARAE,-1.07 ± 1.4
25,MRVWKSILFDRSFFVFGLWR,-0.543 ± 0.6

row,Substance,amyloid nucleation score
1,DNSLYE,-2.11 ± 2.7
2,RLYWWDVMTSNMFVMAFRSR,inactive
3,NYYCRDVI,0.392 ± 0.3
4,EGSIMRGWLFICYNLF,-0.244 ± 0.93
5,VRTPRRCCSY,-0.096 ± 0.28
6,LIDLCGLCFEAR,0.181 ± 0.26
7,NAFNHFYPTQPFLVQDCWRR,0.605 ± 0.72
8,PCWLQMSCR,-0.148 ± 0.79
9,SLYELPWDNYP,-0.043 ± 1.4
10,VMDGYVSGCFLWRCCNRNRS,2.92 ± 0.12
11,LLRLLVRAVMFFWAWGSRGA,inactive
12,LVSMRMAFCPWLVRKGIPL,0.206 ± 1.6
13,KDCCMLDIYVEAWSGSFGRK,1.44 ± 0.2
14,SMDTLLHP,-0.155 ± 0.23
15,CVLCDGYFKSERLLNGWVM,-0.641 ± 0.52
16,IHVPNYVDRELELRASNSSR,-0.298 ± 0.32
17,PRKACTIGWLGSINLERGEE,-0.681 ± 0.74
18,HVHTDSIDRVWRVLFTIKSK,0.776 ± 0.61
19,YSSICGSKLLRSGGCRGVGH,-0.083 ± 0.49
20,SYGHLRAFFEDCSH,-0.145 ± 0.51
21,HERFLRIQRVHREKKCKVCL,0.267 ± 0.77
22,RRWALRYINSATLFFLKVIG,-0.661 ± 0.93
23,PFVGTIFVSGSGTSMENGIC,-0.601 ± 0.47
24,MRFGLRYKALALRVFVEMTA,inactive
25,VWFCLCLYM,1.95 ± 0.091

row,Substance,amyloid nucleation score
1,RIVSSFLLSVVGCGMEVVRV,0.349 ± 0.63
2,NCYSF,0.055 ± 0.29
3,CGFVEMTSRSKIHSLICWPG,1.53 ± 0.44
4,LSWES,-0.866 ± 0.73
5,FFNCFLLDNNYVSLYLWSKD,6.832 ± 0.068
6,DTQESSNIVRSLPRLVGLLG,0.248 ± 0.43
7,VLYGLGSWLVRNIVLSYSVV,0.106 ± 0.24
8,YSLSNVEGYYTYYYRT,-0.071 ± 0.28
9,WSLLCDCASGQCVMR,0.005 ± 0.44
10,WWGWKIDTNAQILARLCKCL,-0.005 ± 1.2
11,RLCIVLSRHMPYTDRMLVMP,0.259 ± 0.26
12,LLGDMMALQAYSELLRFMSG,-0.234 ± 0.61
13,FRYGYLFKLSNVWIDDMLRR,1.96 ± 0.55
14,CDGPCALQS,0.263 ± 0.51
15,NNVNEVWWA,0.249 ± 0.69
16,WDHQNMNLYYIKYGMVMNQS,3.17 ± 0.067
17,DTNQGYGVSGQIVKGRICFN,-0.681 ± 0.47
18,TLTVRRCSCQVQWGLRMFHL,-0.653 ± 1.4
19,FNDGYSVAEA,0.998 ± 0.48
20,LWGRGCMCWVVVARCFWPLR,-0.153 ± 1.4
21,ALNLKCIRLSGV,0.496 ± 0.47
22,FFIGFIL,1.59 ± 0.21
23,GCRGSFVEGWIAHMADGSFI,-0.577 ± 0.57
